Laboratory results: patent US6906033 (dated 2005)
Numbering of substitutions follows the chain as printed. Read-outs that look alike come from different tables or passages of the source.

Assays:
Assay in all cases: enzyme inhibition
human factor XIIa [1] = target: T1, human factor XIIa (human, UniProt P00748 20-615, biotinylated with Biotin Ester (Zymed); sites not stated)
T1 chain: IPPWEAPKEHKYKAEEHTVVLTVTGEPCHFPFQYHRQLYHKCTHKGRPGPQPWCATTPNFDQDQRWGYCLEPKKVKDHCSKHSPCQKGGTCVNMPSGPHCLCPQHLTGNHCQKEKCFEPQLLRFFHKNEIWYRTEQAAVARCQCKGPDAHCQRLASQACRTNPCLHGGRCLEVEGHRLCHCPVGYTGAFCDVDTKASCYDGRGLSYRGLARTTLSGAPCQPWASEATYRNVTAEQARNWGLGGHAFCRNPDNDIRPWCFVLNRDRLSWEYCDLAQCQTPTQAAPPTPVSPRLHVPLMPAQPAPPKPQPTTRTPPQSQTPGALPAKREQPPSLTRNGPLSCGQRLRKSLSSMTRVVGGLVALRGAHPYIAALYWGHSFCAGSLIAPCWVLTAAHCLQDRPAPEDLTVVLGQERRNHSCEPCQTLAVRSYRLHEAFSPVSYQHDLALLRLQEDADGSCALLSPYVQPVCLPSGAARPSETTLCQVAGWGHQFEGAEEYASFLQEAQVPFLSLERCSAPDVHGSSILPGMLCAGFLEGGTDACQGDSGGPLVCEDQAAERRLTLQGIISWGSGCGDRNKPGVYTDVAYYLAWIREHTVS

human factor Xa [2] = target: T2, human factor Xa (human, UniProt P00742 41-179; P00742 235-488)
T2 chain 1: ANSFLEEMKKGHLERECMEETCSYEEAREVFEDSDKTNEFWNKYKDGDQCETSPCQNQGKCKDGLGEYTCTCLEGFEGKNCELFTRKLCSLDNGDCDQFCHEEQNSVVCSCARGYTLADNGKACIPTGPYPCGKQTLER
T2 chain 2: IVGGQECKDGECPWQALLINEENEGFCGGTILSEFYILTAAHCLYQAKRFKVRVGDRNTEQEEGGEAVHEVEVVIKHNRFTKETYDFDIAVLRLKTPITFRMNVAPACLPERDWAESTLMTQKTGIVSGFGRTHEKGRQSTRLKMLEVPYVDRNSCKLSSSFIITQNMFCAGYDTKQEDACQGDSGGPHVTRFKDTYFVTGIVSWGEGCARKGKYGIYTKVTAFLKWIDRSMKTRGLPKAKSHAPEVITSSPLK

human plasma kallikrein [3] = target: T3, human plasma kallikrein (human, UniProt P03952 20-638)
human factor XIIa [4] = target: T1, human factor XIIa
human factor Xa [5] = target: T2, human factor Xa
human plasma kallikrein [6] = target: T3, human plasma kallikrein; remark: listed apart in the source
human factor XIIa [7] = target: T1, human factor XIIa
human plasma kallikrein [8] = target: T3, human plasma kallikrein; remark: listed apart in the source
human factor XIIa [9] = target: T1, human factor XIIa
human factor Xa [10] = target: T2, human factor Xa

T3 sequence (P03952 20-638): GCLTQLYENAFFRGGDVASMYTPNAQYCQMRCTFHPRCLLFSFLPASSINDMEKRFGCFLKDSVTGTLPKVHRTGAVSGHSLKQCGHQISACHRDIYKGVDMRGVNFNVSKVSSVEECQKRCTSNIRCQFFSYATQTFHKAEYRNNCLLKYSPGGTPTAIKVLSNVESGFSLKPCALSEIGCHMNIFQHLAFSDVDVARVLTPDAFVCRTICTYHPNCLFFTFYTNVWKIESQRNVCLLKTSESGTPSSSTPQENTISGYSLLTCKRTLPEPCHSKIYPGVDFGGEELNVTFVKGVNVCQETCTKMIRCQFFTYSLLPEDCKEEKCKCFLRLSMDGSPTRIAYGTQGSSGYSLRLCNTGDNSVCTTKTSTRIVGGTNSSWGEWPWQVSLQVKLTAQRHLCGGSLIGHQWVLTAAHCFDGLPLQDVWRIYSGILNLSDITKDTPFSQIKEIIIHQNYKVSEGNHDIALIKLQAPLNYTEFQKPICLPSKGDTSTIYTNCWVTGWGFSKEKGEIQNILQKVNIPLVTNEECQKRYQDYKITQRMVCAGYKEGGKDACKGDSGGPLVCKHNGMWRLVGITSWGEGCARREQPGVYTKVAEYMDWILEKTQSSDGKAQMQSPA

B1: TW6151 (protein)
chain: EVVREVCSEQAETGPCRAMISRWYFDVTEGKCAPFFYGGCEGNRNNFDTEEYCMAVCGSAI
Work on B1 yielded a Ki (human factor XIIa [1]) of 1160 nM, a Ki (human factor Xa [2]) of 954 nM and a Ki (human plasma kallikrein [3]) of 163 nM.

B2: DD129 (protein)
chain: B1 chain with M19L, I20F, E41G
B2 was tested, and the Ki (human factor XIIa [1]) was 1860 nM, the Ki (human factor Xa [2]) was 6 nM and the Ki (human plasma kallikrein [3]) was 3.6 nM.

B3: TW6147 (protein)
chain: B1 chain with E41A
B3 gave a Ki (human factor XIIa [4]) of 1090 nM, a Ki (human factor Xa [5]) of 179 nM and a Ki (human plasma kallikrein [6]) of 35 nM.

B4: BG031 (protein)
chain: B1 chain with T13V, E41G
B4 was tested, and the Ki (human factor XIIa [7]) was 498 nM and the Ki (human plasma kallikrein [8]) was 34 nM.

B5: BG002 (protein)
chain: B1 chain with M19L, I20L, E41G
In the case of B5, the Ki (human factor XIIa [1]) is reported as 403 nM, the Ki (human factor Xa [2]) is reported as 60 nM and the Ki (human plasma kallikrein [3]) is reported as 0.98 nM.

B6: TW6205 (protein)
chain: B1 chain with M19L, R22A, E41G
For B6, the Ki (human factor XIIa [9]) was 195 nM and the Ki (human factor Xa [10]) was 29 nM.

B7: TW6174 (protein)
chain: B1 chain with M19L, I20H, E41G
B7 was tested, and the Ki (human factor XIIa [1]) was 2800 nM.

B8: TW6153 (protein)
chain: B1 chain with E41I
Work on B8 yielded a Ki (human factor XIIa [1]) of 65 nM, a Ki (human factor Xa [2]) of 36 nM and a Ki (human plasma kallikrein [3]) of 11.2 nM.

B9: TW6208 (protein)
chain: B1 chain with A18G, E41G
For B9, the Ki (human factor XIIa [7]) was 369 nM.

B10: BG032 (protein)
chain: B1 chain with T13S, E41G
In the case of B10, the Ki (human factor XIIa [7]) is reported as 731 nM and the Ki (human plasma kallikrein [8]) is reported as 49 nM.

B11: TW6179 (protein)
chain: B1 chain with M19G, E41G
B11 was tested, and the Ki (human factor XIIa [7]) was 368 nM and the Ki (human plasma kallikrein [8]) was 78 nM.

B12: TW6184 (protein)
chain: B1 chain with I20H, S21Y, E41G
Binder B12 has a Ki (human factor XIIa [9]) of 14000 nM and a Ki (human factor Xa [10]) of 214 nM.

B13: TW6161 (protein)
chain: B1 chain with E41Y
For B13, the Ki (human factor XIIa [1]) was 1510 nM, the Ki (human factor Xa [2]) was 8.7 nM and the Ki (human plasma kallikrein [3]) was 7.5 nM.

B14: TW6178 (protein)
chain: B1 chain with E41G, G42R
Work on B14 yielded a Ki (human factor XIIa [1]) of 444 nM and a Ki (human plasma kallikrein [3]) of 16 nM.

B15: TW6159 (protein)
chain: B1 chain with E41V
B15 showed a Ki (human factor Xa [2]) of 64 nM and a Ki (human plasma kallikrein [3]) of 17 nM.

B16: DD112 (protein)
chain: B1 chain with M19V, E41G
Work on B16 yielded a Ki (human factor XIIa [7]) of 998 nM and a Ki (human plasma kallikrein [8]) of 6.8 nM.

B17: DD101 (protein)
chain: B1 chain with E41D
B17 gave a Ki (human factor XIIa [1]) of 924 nM and a Ki (human plasma kallikrein [3]) of 64 nM.

B18: TW6204 (protein)
chain: B1 chain with M19A, R22A, E41G
B18 showed a Ki (human factor XIIa [9]) of 147 nM and a Ki (human factor Xa [10]) of 87 nM.

B19: TW6139 (protein)
chain: B1 chain with E41H
B19 showed a Ki (human factor XIIa [1]) of 152 nM, a Ki (human factor Xa [2]) of 78 nM and a Ki (human plasma kallikrein [3]) of 19 nM.

B20: TW6173 (protein)
chain: B1 chain with M19A, I20H, E41G
Work on B20 yielded a Ki (human factor XIIa [1]) of 1430 nM.

B21: TW122 (protein)
chain: EVCSEQAETGPCRAMISRWYFDVTEGKCAPFFYGGCGANRNNFDTEEYCMAVCGSAI
B21 showed a Ki (human factor Xa [2]) of 581 nM and a Ki (human plasma kallikrein [3]) of 32 nM.
